Test system: Cc1cc(=O)oc2cc(O[C@@H]3O[C@H](CO)[C@@H](O)[C@H](O)[C@H]3O)ccc12
Test: purified protein
Conditions: 20 mM sodium phosphate pH 6.5, 1 µM enzyme, temperature not stated

## VC0615 (Vibrio cholerae O1 biovar El Tor str. N16961)
  Km: 768 µM
  kcat: 0.0217 s⁻¹

Reference: PMC6096475, “Structure of the GH9 glucosidase/glucosaminidase from Vibrio cholerae” (Acta Crystallographica. Section F, Structural Biology …, 2018)
